Measured values published in patent publication US20240279321A1 (THERINI BIO, published 2024).
Where no end group is shown, it is not given here. The star is where a group is joined. Biotin = O=C1N[C@H]2[C@H](CS[C@H]2CCCCC(=O)*)N1

Key:
NP2 (Rabbit) [1] = biological target: T1, NP2 (Rabbit) (not fully specified (N-terminus)); assay: ELISA of ADI-60143 IgG on NP2 peptide (rabbit), RFU readout; drawn table, column Rabbit
T1 construct: 'N-P2' elsewhere in the drawings stands for the N-term biotinylated P2 peptide; also called Rabbit P2 peptide; NP2 Fab (Rabbit) in the legend box of panel A
T1 peptide: YSMKKTTMKIIPLNRLSIG

Rat P2 peptide extended = biological target: T2, Rat P2 peptide extended (rat); assay: ELISA of ADI-60143 IgG on Ext NP2 peptide (rat), RFU readout; drawn table, column Rat; the curve has no upper plateau at 500 nM
T2 construct: also called rat extended P2 peptide
T2 peptide: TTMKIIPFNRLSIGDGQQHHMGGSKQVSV

[2] = biological target: T3, Human P2 peptide extended (human); assay: ELISA of ADI-60143 IgG on Ext NP2 peptide (human), RFU readout; drawn table, column Human
T3 construct: also called human extended P2 peptide
T3 peptide: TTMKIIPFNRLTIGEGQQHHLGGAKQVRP

Ext NP2 (Rabbit) = biological target: T4, Ext NP2 (Rabbit); assay: ELISA of ADI-60143 IgG on Ext NP2 peptide (rabbit), RFU readout; drawn table, column Rabbit
T4 construct: also called Rabbit P2 peptide extended
T4 peptide: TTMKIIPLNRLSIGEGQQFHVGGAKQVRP

[3] = biological target: T5, Human fibrin γ377-395 (Human P2 peptide) (human); assay: ELISA (N-P2 ELISA), RFU readout
T5 construct: In the crystal models, residues 410-421 of chain A are ordered; also called fibrin P2 peptide; fibrin P2 gamma peptide
T5 peptide: Biotin-YSMKKTTMKIIPFNRLTIG

Rat P2 peptide [4] = biological target: T6, Rat P2 peptide (rat); assay: ELISA of ADI-60143 IgG on NP2 peptide (rat), RFU readout; drawn table, column Rat
T6 construct: also called Mouse/Rat P2 peptide
T6 peptide: YSMKETTMKIIPFNRLSIG

[5] = biological target: T5, Human fibrin γ377-395 (Human P2 peptide); assay: ELISA of ADI-60143 IgG on NP2 peptide (human), RFU readout; drawn table, column Human
[6] = biological target: T5, Human fibrin γ377-395 (Human P2 peptide); assay: BLI (Octet): N-term biotinylated P2G peptide on SA sensor, 100nM Fab in solution; the same panel stands twice in the middle row
Rat P2 peptide [7] = biological target: T6, Rat P2 peptide; assay: ELISA of ADI-60143 Fab on NP2 peptide (rat), RFU readout; drawn table, column Rat
[8] = biological target: T5, Human fibrin γ377-395 (Human P2 peptide); assay: ELISA of ADI-60143 Fab on NP2 peptide (human), RFU readout; drawn table, column Human
[9] = biological target: T5, Human fibrin γ377-395 (Human P2 peptide); assay: BLI (Octet RED384), Fab on P2 peptide; on-rate phase 0-300 s, off-rate phase 300-600 s
NP2 (Rabbit) [10] = biological target: T1, NP2 (Rabbit); assay: ELISA of ADI-60143 Fab on NP2 peptide (rabbit), RFU readout; drawn table, column Rabbit

B1: antibody clone 60143 (full length ADI-60143 IgG) (antibody, V domains shown)
VH: QVQLVQSGAEVKKPGASVKVSCKASGYTFTSTWIHWVRQAPGQGLEWIGLIDPSDSYTNYNQKFRGRATLTVDTSTSTAYMELSSLRSEDTAVYYCASSKPTGGWGQGTTVTVSS
VL: DIVMTQSPLSLPVTPGEPASISCRSSKSLLHSSGITYLSWYLQKPGQSPQLLIYQMSNLASGVPDRFSGSGSGTDFTLKISRVEAEDVGVYYCAQNLELPLTFGGGTKVEIKR
B1 gave an EC50 (NP2 (Rabbit) [1]) of 0.082 nM, an EC50 (Rat P2 peptide extended) of 139 nM and an EC50 [2] of 7.25 nM. The EC50 (Ext NP2 (Rabbit)) was 5.97 nM, the EC50 [3] was 0.08 nM and the EC50 (Rat P2 peptide [4]) was 0.094 nM. The EC50 [5] was 0.11 nM.

B2: Fab of antibody clone 60143 (ADI-60143 Fab) (Fab, V domains shown)
VH: B1 VH
VL: B1 VL
notes: The crystal model holds chain H residues 1-127 and 134-214 and chain L residues 1-213; not shown: The papain cleavage limit is not stat
For B2, the Kd [6] was 23 nM, the EC50 (Rat P2 peptide [7]) was 1.78 nM and the EC50 [8] was 0.34 nM. The Kd [9] was 70 nM and the EC50 (NP2 (Rabbit) [10]) was 0.67 nM.
